The values below come from patent publication US12295987B2, “Method of using a GIP/GLP1 co-agonist for diabetes” (Eli Lilly and Company, priority 2018, dated 2025).

Numbered stars: 1 amine (or outer) side, 2 acyl side, 3 side chain; on linkers, the order of the positions; unused ones are H or OH. Square brackets hold non-standard residues; d marks the D form. Side chains are listed from the residue outwards. Ends that are not written are not given here. * marks the point of attachment. C20 diacid = O=C(O)CCCCCCCCCCCCCCCCCCC(=O)*; γGlu = O=C(O)[C@H](CCC(=O)[*:2])N[*:1]; AEEA = NCCOCCOCC(=O)O; Aib = CC(C)(N)C(=O)O

The target in the experiment is T1, human gastric inhibitory peptide receptor (hGIPR) (Homo sapiens, UniProt P48546).
T1 construct: expressed in transfected cells; host or cells: HEK293
T1 sequence (P48546 22-466): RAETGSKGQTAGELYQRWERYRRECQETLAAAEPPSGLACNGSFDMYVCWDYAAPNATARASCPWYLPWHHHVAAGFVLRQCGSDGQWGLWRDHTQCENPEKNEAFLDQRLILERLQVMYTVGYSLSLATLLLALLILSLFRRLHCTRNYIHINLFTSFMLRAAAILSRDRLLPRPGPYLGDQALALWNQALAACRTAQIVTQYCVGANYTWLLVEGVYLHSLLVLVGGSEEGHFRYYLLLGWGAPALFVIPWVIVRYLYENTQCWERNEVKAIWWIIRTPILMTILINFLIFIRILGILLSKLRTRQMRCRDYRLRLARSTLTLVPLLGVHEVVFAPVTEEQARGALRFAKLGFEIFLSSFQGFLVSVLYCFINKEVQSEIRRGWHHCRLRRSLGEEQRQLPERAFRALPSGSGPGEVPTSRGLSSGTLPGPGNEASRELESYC
Put plainly: cAMP pharmacological functional assay in presence of 0.1% casein, hGIPR. Type of experiment: cell-based. The conditions noted are these: ratio of hGIPR to hGLP1R cAMP EC50 ratios.
Consider “Y-Aib-EGTFTSDYSILLDKIAQ-Aib-AFIK((2-[2-(2-Amino-ethoxy)-ethoxy]-acetyl)2-(γGlu)-CO—(CH2)18—CO2H)YLIEGGPSSGAPPPS-NH2 (Y[Aib]EGTFTSDYSILLDKIAQ[Aib]AFIK([AEEA-AEEA-γGlu-C20 diacid])YLIEGGPSSGAPPPS-NH2; N-terminus assumed; SMILES CC[C@H](C)[C@H](NC(=O)[C@H](CCCCN)NC(=O)[C@H](CC(=O)O)NC(=O)[C@H](CC(C)C)NC(=O)[C@H](CC(C)C)NC(=O)[C@@H](NC(=O)[C@H](CO)NC(=O)[C@H](Cc1ccc(O)cc1)NC(=O)[C@H](CC(=O)O)NC(=O)[C@H](CO)NC(=O)[C@@H](NC(=O)[C@H](Cc1ccccc1)NC(=O)[C@@H](NC(=O)CNC(=O)[C@H](CCC(=O)O)NC(=O)C(C)(C)NC(=O)[C@@H](N)Cc1ccc(O)cc1)[C@@H](C)O)[C@@H](C)O)[C@@H](C)CC)C(=O)N[C@@H](C)C(=O)N[C@@H](CCC(N)=O)C(=O)NC(C)(C)C(=O)N[C@@H](C)C(=O)N[C@@H](Cc1ccccc1)C(=O)N[C@H](C(=O)N[C@@H](CCCCNC(=O)COCCOCCNC(=O)COCCOCCNC(=O)CC[C@H](NC(=O)CCCCCCCCCCCCCCCCCCC(=O)O)C(=O)O)C(=O)N[C@@H](Cc1ccc(O)cc1)C(=O)N[C@@H](CC(C)C)C(=O)N[C@H](C(=O)N[C@@H](CCC(=O)O)C(=O)NCC(=O)NCC(=O)N1CCC[C@H]1C(=O)N[C@@H](CO)C(=O)N[C@@H](CO)C(=O)NCC(=O)N[C@@H](C)C(=O)N1CCC[C@H]1C(=O)N1CCC[C@H]1C(=O)N1CCC[C@H]1C(=O)N[C@@H](CO)C(N)=O)[C@@H](C)CC)[C@@H](C)CC) [Peptide 34]”, for which the “[hGIPR/hGLP1R] EC50 Ratio” value turned out to be 10.03.

Turning to “Y-Aib-EGTFTSDYSILLDKIAQ-Aib-AFK((2-[2-(2-Amino-ethoxy)-ethoxy]-acetyl)2-(γGlu)-CO—(CH2)18—CO2H)EYLIEGGPSSGAPPPS-NH2 (Y[Aib]EGTFTSDYSILLDKIAQ[Aib]AFK([AEEA-AEEA-γGlu-C20 diacid])EYLIEGGPSSGAPPPS-NH2) [Peptide 33]”, the “[hGIPR/hGLP1R] EC50 Ratio” value came out at 8.67.

Regarding “Y-Aib-EGTFTSDYSILLDKIAQ-Aib-K((2-[2-(2-Amino-ethoxy)-ethoxy]-acetyl)2-(γGlu)-CO—(CH2)18—CO2H)FIEYLIEGGPSSGAPPPS-NH2 (Y[Aib]EGTFTSDYSILLDKIAQ[Aib]K([AEEA-AEEA-γGlu-C20 diacid])FIEYLIEGGPSSGAPPPS-NH2; N-terminus assumed; SMILES CC[C@H](C)[C@H](NC(=O)[C@H](CCCCN)NC(=O)[C@H](CC(=O)O)NC(=O)[C@H](CC(C)C)NC(=O)[C@H](CC(C)C)NC(=O)[C@@H](NC(=O)[C@H](CO)NC(=O)[C@H](Cc1ccc(O)cc1)NC(=O)[C@H](CC(=O)O)NC(=O)[C@H](CO)NC(=O)[C@@H](NC(=O)[C@H](Cc1ccccc1)NC(=O)[C@@H](NC(=O)CNC(=O)[C@H](CCC(=O)O)NC(=O)C(C)(C)NC(=O)[C@@H](N)Cc1ccc(O)cc1)[C@@H](C)O)[C@@H](C)O)[C@@H](C)CC)C(=O)N[C@@H](C)C(=O)N[C@@H](CCC(N)=O)C(=O)NC(C)(C)C(=O)N[C@@H](CCCCNC(=O)COCCOCCNC(=O)COCCOCCNC(=O)CC[C@H](NC(=O)CCCCCCCCCCCCCCCCCCC(=O)O)C(=O)O)C(=O)N[C@@H](Cc1ccccc1)C(=O)N[C@H](C(=O)N[C@@H](CCC(=O)O)C(=O)N[C@@H](Cc1ccc(O)cc1)C(=O)N[C@@H](CC(C)C)C(=O)N[C@H](C(=O)N[C@@H](CCC(=O)O)C(=O)NCC(=O)NCC(=O)N1CCC[C@H]1C(=O)N[C@@H](CO)C(=O)N[C@@H](CO)C(=O)NCC(=O)N[C@@H](C)C(=O)N1CCC[C@H]1C(=O)N1CCC[C@H]1C(=O)N1CCC[C@H]1C(=O)N[C@@H](CO)C(N)=O)[C@@H](C)CC)[C@@H](C)CC) [Peptide 32]”, the “[hGIPR/hGLP1R] EC50 Ratio” value was 6.18.

“Y-Aib-EGTFTSDYSILLDKK((2-[2-(2-Amino-ethoxy)-ethoxy]-acetyl)2-(γGlu)-CO—(CH2)18—CO2H)AQ-Aib-AFI-(D-Glu)-YLIEGGPSSGAPPPS-NH2 (YXEGTFTSDYSILLDKKAQXAFIXYLIEGGPSSGAPPPS; Aib, D-Glu, lipidated Lys, C-terminal amide; (2)..(2) Xaa at position 2 is Aib; MOD_RES (17)..(17) Lys at position 17 is chemically modified by conjugation of the epsilon-amino group of the Lys side chain with (2-[2-(2-amino-ethoxy)-ethoxy]-acetyl)2-(gamma-Glu)-CO-(CH2)18- CO2H; (20)..(20) Xaa at position 20 is Aib; (24)..(24) Xaa at position 24 is D-Glu; MOD_RES (39)..(39) Ser at position 39 is amidated) [Peptide 84]”: the “[hGIPR/hGLP1R] EC50 Ratio” value was found to be 9.19.

As to “Y-Aib-EGTFTSDYSILLDKK((2-[2-(2-Amino-ethoxy)-ethoxy]-acetyl)2-(γGlu)-CO—(CH2)18—CO2H)AQ-Aib-AFIEYLI-(D-Glu)-GGPSSGAPPPS-NH2 (YXEGTFTSDYSILLDKKAQXAFIEYLIXGGPSSGAPPPS; Aib, D-Glu; K lipidated C20 diacid-γGlu-AEEA2; C-terminal amide; (2)..(2) Xaa at position 2 is Aib; MOD_RES (17)..(17) Lys at position 17 is chemically modified by conjugation of the epsilon-amino group of the Lys side chain with (2-[2-(2-amino-ethoxy)-ethoxy]-acetyl)2-(gamma-Glu)-CO-(CH2)18- CO2H; (20)..(20) Xaa at position 20 is Aib; (28)..(28) Xaa at position 28 is D-Glu; MOD_RES (39)..(39) Ser at position 39 is amidated) [Peptide 83]”, the “[hGIPR/hGLP1R] EC50 Ratio” value worked out at 4.84.

With “Y-Aib-EGTFTSDYSILLDKK((2-[2-(2-Amino-ethoxy)-ethoxy]-acetyl)2-(γGlu)-CO—(CH2)18—CO2H)AQ-Aib-AFIEYLIEGG-NH2 (Y[Aib]EGTFTSDYSILLDKK([AEEA-AEEA-γGlu-C20 diacid])AQ[Aib]AFIEYLIEGG-NH2; N-terminus assumed; SMILES CC[C@H](C)[C@H](NC(=O)[C@H](CC(C)C)NC(=O)[C@H](Cc1ccc(O)cc1)NC(=O)[C@H](CCC(=O)O)NC(=O)[C@@H](NC(=O)[C@H](Cc1ccccc1)NC(=O)[C@H](C)NC(=O)C(C)(C)NC(=O)[C@H](CCC(N)=O)NC(=O)[C@H](C)NC(=O)[C@H](CCCCNC(=O)COCCOCCNC(=O)COCCOCCNC(=O)CC[C@H](NC(=O)CCCCCCCCCCCCCCCCCCC(=O)O)C(=O)O)NC(=O)[C@H](CCCCN)NC(=O)[C@H](CC(=O)O)NC(=O)[C@H](CC(C)C)NC(=O)[C@H](CC(C)C)NC(=O)[C@@H](NC(=O)[C@H](CO)NC(=O)[C@H](Cc1ccc(O)cc1)NC(=O)[C@H](CC(=O)O)NC(=O)[C@H](CO)NC(=O)[C@@H](NC(=O)[C@H](Cc1ccccc1)NC(=O)[C@@H](NC(=O)CNC(=O)[C@H](CCC(=O)O)NC(=O)C(C)(C)NC(=O)[C@@H](N)Cc1ccc(O)cc1)[C@@H](C)O)[C@@H](C)O)[C@@H](C)CC)[C@@H](C)CC)C(=O)N[C@@H](CCC(=O)O)C(=O)NCC(=O)NCC(N)=O) [Peptide 51]”, the “[hGIPR/hGLP1R] EC50 Ratio” value amounted to 3.97.

Regarding “Y-Aib-EGTFTSDYSILLDKK((2-[2-(2-Amino-ethoxy)-ethoxy]-acetyl)2-(γGlu)-CO—(CH2)18—CO2H)AQ-Aib-AFIEYLIEGGPSSG-NH2 (Y[Aib]EGTFTSDYSILLDKK([AEEA-AEEA-γGlu-C20 diacid])AQ[Aib]AFIEYLIEGGPSSG-NH2; N-terminus assumed; SMILES CC[C@H](C)[C@H](NC(=O)[C@H](CC(C)C)NC(=O)[C@H](Cc1ccc(O)cc1)NC(=O)[C@H](CCC(=O)O)NC(=O)[C@@H](NC(=O)[C@H](Cc1ccccc1)NC(=O)[C@H](C)NC(=O)C(C)(C)NC(=O)[C@H](CCC(N)=O)NC(=O)[C@H](C)NC(=O)[C@H](CCCCNC(=O)COCCOCCNC(=O)COCCOCCNC(=O)CC[C@H](NC(=O)CCCCCCCCCCCCCCCCCCC(=O)O)C(=O)O)NC(=O)[C@H](CCCCN)NC(=O)[C@H](CC(=O)O)NC(=O)[C@H](CC(C)C)NC(=O)[C@H](CC(C)C)NC(=O)[C@@H](NC(=O)[C@H](CO)NC(=O)[C@H](Cc1ccc(O)cc1)NC(=O)[C@H](CC(=O)O)NC(=O)[C@H](CO)NC(=O)[C@@H](NC(=O)[C@H](Cc1ccccc1)NC(=O)[C@@H](NC(=O)CNC(=O)[C@H](CCC(=O)O)NC(=O)C(C)(C)NC(=O)[C@@H](N)Cc1ccc(O)cc1)[C@@H](C)O)[C@@H](C)O)[C@@H](C)CC)[C@@H](C)CC)C(=O)N[C@@H](CCC(=O)O)C(=O)NCC(=O)NCC(=O)N1CCC[C@H]1C(=O)N[C@@H](CO)C(=O)N[C@@H](CO)C(=O)NCC(N)=O) [Peptide 50]”, the “[hGIPR/hGLP1R] EC50 Ratio” value is recorded as 2.90.
